Molecular target: His6-Rv3208 (FasR from M. tuberculosis) (M. tuberculosis H37Rv)
Assay: SEC

## His6-Rv3208 (FasR from M. tuberculosis) (natural protein)
  stoichiometry N: 2
